The chains are these.
B1: α-subunit of human C-P4H-II truncated to the catalytic (CAT) domain, construct C-P4H-II-Δ281 (domain or fragment, UniProt O15460-1 282-535, looked up)
chain: DYLPERDVYESLCRGEGVKLTPRRQKRLFCRYHHGNRAPQLLIAPFKEEDEWDSPHIVRYYDVMSDEEIERIKEIAKPKLARATVRDPKTGVLTVASYRVSKSSWLEEDDDPVVARVNRRMQHITGLTVKTAELLQVANYGVGGQYEPHFDFSRNDERDTFKHLGTGNRVATFLNYMSDVEAGGATVFPDLGAAIWPKKGTAVFWYNLLRSGEGDYRTRHAACPVLVGCKWVSNKWFHERGQEFLRPCGSTEVD
notes: residues 534-535 are named as the C-terminal residues; codon-optimized gene; Linked to PDI in the crystal by intersubunit disulfide bridges (Cys311-Cys397, Cys529-Cys53); also called Hs-α(II) from D282; source: E. coli K12, polycistronic CyDisCo plasmid, coexpressed with β/PDI and yeast Erv1; purified (Talon IMAC, HiTrap Q, Superdex 200)
B2: α-subunit of mature human C-P4H-II (enzyme, UniProt O15460-1 22-535, looked up)
chain: EFFTSIGHMTDLIYAEKELVQSLKEYILVEEAKLSKIKSWANKMEALTSKSAADAEGYLAHPVNAYKLVKRLNTDWPALEDLVLQDSAAGFIANLSVQRQFFPTDEDEIGAAKALMRLQDTYRLDPGTISRGELPGTKYQAMLSVDDCFGMGRSAYNEGDYYHTVLWMEQVLKQLDAGEEATTTKSQVLDYLSYAVFQLGDLHRALELTRRLLSLDPSHERAGGNLRYFEQLLEEEREKTLTNQTEAELATPEGIYERPVDYLPERDVYESLCRGEGVKLTPRRQKRLFCRYHHGNRAPQLLIAPFKEEDEWDSPHIVRYYDVMSDEEIERIKEIAKPKLARATVRDPKTGVLTVASYRVSKSSWLEEDDDPVVARVNRRMQHITGLTVKTAELLQVANYGVGGQYEPHFDFSRNDERDTFKHLGTGNRVATFLNYMSDVEAGGATVFPDLGAAIWPKKGTAVFWYNLLRSGEGDYRTRHAACPVLVGCKWVSNKWFHERGQEFLRPCGSTEVD
notes: collagen prolyl 4-hydroxylase α(II) subunit, human, isoform-IIb splice variant (exon 12b); the complex is called mature C-P4H-II; codon-optimized gene; also called α(II); Hs-α(II); source: E. coli K12, polycistronic CyDisCo plasmid, coexpressed with β/PDI and yeast Erv1; purified (Talon IMAC, HiTrap Q, Superdex 200); not shown: His6, N-terminal, kept
B3: protein disulfide isomerase, the β-subunit of C-P4H (enzyme)
chain: not shown
notes: protein disulfide isomerase, human, called the intact or complete β/PDI subunit, without a tag; codon-optimized gene; the crystal model starts at Glu21; Made in the E. coli cytoplasm, so probably without the signal peptide (my surmise); also called PDI; β/PDI subunit; source: E. coli K12, polycistronic CyDisCo plasmid, coexpressed with the α-subunit and yeast Erv1; co-purified with the His-tagged …
B4: α-subunit of human C-P4H-II lacking the N-terminal dimerization domain, construct C-P4H-II-Δ140 (domain or fragment, UniProt O15460-1 141-535, looked up)
chain: DTYRLDPGTISRGELPGTKYQAMLSVDDCFGMGRSAYNEGDYYHTVLWMEQVLKQLDAGEEATTTKSQVLDYLSYAVFQLGDLHRALELTRRLLSLDPSHERAGGNLRYFEQLLEEEREKTLTNQTEAELATPEGIYERPVDYLPERDVYESLCRGEGVKLTPRRQKRLFCRYHHGNRAPQLLIAPFKEEDEWDSPHIVRYYDVMSDEEIERIKEIAKPKLARATVRDPKTGVLTVASYRVSKSSWLEEDDDPVVARVNRRMQHITGLTVKTAELLQVANYGVGGQYEPHFDFSRNDERDTFKHLGTGNRVATFLNYMSDVEAGGATVFPDLGAAIWPKKGTAVFWYNLLRSGEGDYRTRHAACPVLVGCKWVSNKWFHERGQEFLRPCGSTEVD
notes: collagen prolyl 4-hydroxylase α(II) subunit, human, isoform-IIb splice variant (exon 12b), first 140 residues deleted, starts at Asp141; holds the PSB and CAT domains; codon-optimized gene; also called PSB and CAT; Hs-α(II) from D141; source: E. coli K12, polycistronic CyDisCo plasmid, coexpressed with β/PDI and yeast Erv1; purified (Talon IMAC, HiTrap Q, Superdex 200); not shown: His6, …

Series [1] deals with B3. The experiment in a line: SEC-MALS; purified, frozen-thawed co-expressed complex on Superdex 200 Increase 10/300 GL in SEC buffer (50 mM Tris, pH 7.8, 50 mM NaCl, 100 mM glycine). Particulars: both partners purified.
Series [2] deals with the molecule itself. The series is described as above.
Series [3] has as its target B2. The experiment in a line: co-purification; His6-tagged α-subunit coexpressed with untagged β/PDI in E. coli (CyDisCo); Talon IMAC from the lysate, HiTrap Q, Superdex 200, 4 °C, Tris pH 7.8; subunits found in the purified sample by SDS-PAGE and MS. The conditions noted are these: partners not purified.
The target in series [4] is B3. The description is as above. Particulars: partners not purified.

The text below walks through data of paper PMC9676403, “Crystal structure of the collagen prolyl 4-hydroxylase (C-P4H) catalytic domain complexed with PDI: Toward a model of the C-P4H α2β2 tetramer” (The Journal of Biological Chemistry, 2022).

For the molecule B1, in series [1], the binding result is on record as “binds”.
Turning to B2, the binding result in series [2] was “binds”.
As for B3, the binding result in series [3] is recorded as “binds”.
On to B4, for which the binding result in series [4] was “binds”.
